Results on 3 molecules are retold here after US20240207432A1 (BIOSION, published 2024).

In assay [1] the target is T1, full length human TROP2 on 293F-TROP2 cells (human, UniProt P09758 27-323).
T1 construct: also called 293F-TROP2 cells (clone ID #3A8); cell surface TROP2
T1 sequence: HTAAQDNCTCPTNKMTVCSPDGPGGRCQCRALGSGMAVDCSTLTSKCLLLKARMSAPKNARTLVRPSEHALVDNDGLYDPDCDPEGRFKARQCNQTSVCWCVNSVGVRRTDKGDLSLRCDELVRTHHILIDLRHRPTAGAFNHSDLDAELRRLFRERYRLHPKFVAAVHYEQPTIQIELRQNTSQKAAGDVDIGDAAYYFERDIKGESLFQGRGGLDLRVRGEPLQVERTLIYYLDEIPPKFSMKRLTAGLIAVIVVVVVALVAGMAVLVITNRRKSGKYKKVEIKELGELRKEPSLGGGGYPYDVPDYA
In words: FACS on 293F-TROP2 cells, MFI. How it is done:
The binding activity of the mouse anti-TROP2 antibodies to cell surface TROP2 proteins was tested by flow cytometry (FACS), using Biosion in-house prepared 293F-TROP2 cells (clone ID #3A8) stably expressing full length human TROP2s (uniprot #P09758, SEQ ID NO.: 71) on cell membrane. The 293F-TROP2 cells were prepared by transfecting 293F cells (Thermofisher Inc., Cat #11625019) with a pCMV-T-P plasmid inserted with human TROP2 coding sequence between EcoRI and XbaI sites, following the instruction of lipofectamine 3000 transfection reagent (Thermo Fisher).
The 293F-TROP2 cells were harvested from cell culture flasks, washed twice and re-suspended in phosphate buffered saline (PBS) containing 2% v/v Fetal Bovine Serum (FACS buffer). […] Following an incubation of 40 minutes at 4° C. in dark, cells were washed twice and re-suspended in FACS buffer. Fluorescence was measured using a Becton Dickinson FACS Canto II-HTS equipment, and the MFI (mean fluorescence intensity) was plotted against antibody concentration. Data was analyzed using Graphpad Prism software and EC₅₀ values were reported.

Assay [2] addresses T2, cynomolgus TROP2-his protein (cynomolgus monkey, UniProt P09758 27-272 (human entry), limits assumed).
T2 construct: no cleavage site is stated; also called Cynomolgus monkey TROP2-his protein; monkey TROP2
T2 chain: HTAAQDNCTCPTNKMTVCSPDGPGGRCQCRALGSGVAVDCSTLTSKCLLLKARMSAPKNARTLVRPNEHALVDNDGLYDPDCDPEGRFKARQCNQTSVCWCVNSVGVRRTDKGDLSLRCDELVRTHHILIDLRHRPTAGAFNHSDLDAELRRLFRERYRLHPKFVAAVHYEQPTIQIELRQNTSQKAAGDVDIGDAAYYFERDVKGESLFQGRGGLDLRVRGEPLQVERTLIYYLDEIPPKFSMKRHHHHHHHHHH
Briefly: indirect ELISA, cynomolgus TROP2-his coated at 2 ug/mL, OD(450-630). How it is done: (§1) The anti-TROP2 antibodies of the disclosure were tested for their cross-reaction with cynomolgus TROP2 proteins. Briefly, 96-well micro plates were coated with 100 μl 2 μg/ml cynomolgus TROP2-his proteins (prepared in-house with SEQ ID NO: 70) in carbonate/bicarbonate buffer (pH 9.6) overnight at 4° C. ELISA plates were washed once with wash buffer (PBS+0.05% v/v Tween-20, PBST) and then blocked with 200 μl/well blocking buffer (5% w/v non-fatty milk in PBST) for 2 hours at 37° C. […] After a final wash, plates were incubated with 100 μl/well TMB (Innoreagents) at room temperature. The reaction was stopped 3-10 minutes later at room temperature with 50 μl/well 1M H₂SO₄, and the absorbance of each well was read on a microplate reader using dual wavelength mode with 450 nm for TMB and 630 nm as the reference wavelength. The OD (450-630) values were plotted against antibody concentration. Data was analyzed using Graphpad Prism software and EC₅₀ values were reported.

Assay [3] has as its target T3, human TROP2-his protein (human, UniProt P09758 27-274).
T3 construct: Biotin-labelled in the ELISAs, unlabelled analyte in Biacore; also called biotin-labeled human TROP2-his protein; biotin human Trop2-his
T3 sequence: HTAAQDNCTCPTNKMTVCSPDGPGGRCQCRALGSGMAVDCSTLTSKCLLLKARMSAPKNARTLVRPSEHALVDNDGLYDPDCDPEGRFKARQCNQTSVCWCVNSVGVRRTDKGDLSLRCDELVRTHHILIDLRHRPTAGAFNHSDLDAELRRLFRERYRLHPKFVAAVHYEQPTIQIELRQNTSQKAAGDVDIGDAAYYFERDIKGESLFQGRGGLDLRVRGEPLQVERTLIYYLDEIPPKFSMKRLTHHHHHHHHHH
Briefly: SPR Biacore T200, mAb captured on anti-mouse IgG CM5 chip, TROP2-his analyte. How it is done:
(§2) Un-reacted moieties on the chip (biosensor) surface were blocked with ethanolamine. […] The antigen-antibody association kinetics was followed for 2 minutes and the dissociation kinetics was followed for 10 minutes. The association and dissociation curves were fit to a 1:1 Langmuir binding model using BIAcore evaluation software.
Background: SPR reads the build-up and loss of mass on a sensor chip optically.

Assay [4] has as its target T2, cynomolgus TROP2-his protein. Described as above. How it is done:
as §2

Assay [5] addresses T3, human TROP2-his protein. In words: capture ELISA, antibody captured on anti-mouse IgG Fc coat, biotin human TROP2-his in solution, OD(450-630). How it is done:
Plates were washed once with wash buffer (PBS+0.05% v/v Tween-20, PBST) and then blocked with 200 μl/well blocking buffer (5% w/v non-fatty milk in PBST) for 2 hours at 37° C. […] Plates containing captured anti-TROP2 antibodies were incubated with biotin-labeled human TROP2-his protein (prepared in house, SEQ ID NO: 67, 56.7 ng/mL in 2.5% w/v non-fatty milk in PBST, 100 μl/well) for 40 minutes at 37° C., washed 4 times, and incubated with streptavidin conjugated HRP (1:10000 dilution in PBST, Jackson Immuno Research, Cat #016-030-084, 100 μl/well) for 40 minutes at 37° C. After a final wash, plates were incubated with 100 μl/well ELISA substrate TMB (Innoreagents, Cat #TMB-S-002) at room temperature. The reaction was stopped in 3-10 minutes at room temperature with 50 μl/well 1M H₂SO₄, and the absorbance of each well was read on a microplate reader using dual wavelength mode with 450 nm for TMB and 630 nm as the reference wavelength. The OD (450-630) values were plotted against antibody concentration. Data was analyzed using Graphpad Prism software and EC₅₀ values were reported.
(In general: In an ELISA, binding on a coated surface is turned into a signal by an enzyme label.)

The target in assay [6] is T3, human TROP2-his protein. In words: competitive ELISA: BM1 coated at 1 ug/mL, antibody premixed with biotin human TROP2-his; blocked: binding of TROP2-his to coated BM1. The protocol: The mouse anti-TROP2 antibodies were tested for epitope binding in a competitive ELISA assay. […] ELISA plates were washed once with wash buffer (PBS+0.05% v/v Tween-20, PBST) and then blocked with 200 μl blocking buffer (5% w/v non-fatty milk in PBST) for 2 hours at 37° C. While blocking, the anti-TROP2 antibodies or controls were diluted with biotin labeled human TROP2-his protein (SEQ ID NO: 67, 34 ng/mL in 2.5% wA non-fatty milk in PBST), starting at 80 nM with a 5-fold serial dilution, and incubated at room temperature for 40 minutes. After plate washing for 4 times, the antibody/TROP2-his protein mixtures were added to the antibody coated plates, 100 μl per well. After incubation at 37° C. for 40 minutes, plates were washed 4 times again using wash buffer. Then the plates were added and incubated with 100 μl Peroxidase Streptavidin (1:10000 dilution in PBST buffer. Jackson Immunoresearch, Cat #016-030-084) for 40 minutes at 37° C. Plates were washed again using wash buffer. Finally, TMB was added and the reaction was stopped using 1M H₂SO₄. The absorbance of each well was read on a microplate reader using dual wavelength mode with 450 nm for TMB and 630 nm as the reference wavelength, and the OD (450-630) values were plotted against antibody concentration. Data was analyzed using Graphpad Prism software and IC₅₀ values were reported.

Assay [7] has as its target T3, human TROP2-his protein. In words: SPR Biacore, human TROP2-his analyte.
In assay [8] the target is T1, full length human TROP2 on 293F-TROP2 …. Briefly: FACS on 293F-TROP2 cells, MFI. This is another data set of the same source.
The target in assay [9] is T3, human TROP2-his protein. In words: epitope grouping ELISA, 15 ug/ml antibody premixed with biotin human TROP2-his; competitor: coated BM1. How it is done:
(§3) Firstly, capture ELISA was performed to determine the concentration of biotin-labeled human Trop2 proteins appropriate for the epitope binning test. […] The plates were washed for 4 times, added with 100 μl/well of serially diluted biotin human Trop2-his proteins (SEQ ID NO: 67) in PBST with 2.5% non-fatty milk (starting from 1.3 μg/ml with a 5-fold serial dilution), and incubated for 40 min at 37° C. Then the plates were washed for 4 times and added with 100 μl/vell of HRP-streptavidin (Jackson Immuno Research, Cat #016-030-084). The plates were incubated for another 40 min at 37° C. Then the plates were washed again, and 100 μl/well TMB was added for color development at RT for 15 min followed by quenching with 50 μl 1M H₂SO₄. The OD values at 450 nm were read.
(§4) With the appropriate concentration determined above, epitope grouping ELISA was performed. […] ELISA plates were washed once with wash buffer (PBS+0.05% v/v Tween-20, PBST) and then blocked with 200 μl blocking buffer (5% w/w non-fatty milk in PBST) for 2 hours at 37° C. […] The mixtures were incubated at room temperature for 40 minutes. After plate washing for 4 times, the antibody/biotin-TROP2-his protein mixtures were added to the antibody coated plates, 100 μl per well, and incubated for another 40 min at 37° C. Then 100 μl/well of HRP-streptavidin was added and incubated for 40 min. Then OD₄₅₀ values were determined and the cross-competition capability was calculated (cross-competition capability of antibody X (%)=(OD₄₅₀ of Antibody X-[…] of Blank)/(OD₄₅₀ of no mAb-OD₄₃₀ of Blank)*100%).

The target in assay [10] is T3, human TROP2-his protein. In words: epitope grouping ELISA, 15 ug/ml antibody premixed with biotin human TROP2-his; competitor: coated BM2. The protocol: as §3, §4
In assay [11] the target is T3, human TROP2-his protein. Briefly: epitope grouping ELISA, 15 ug/ml antibody premixed with biotin human TROP2-his; competitor: coated huA1E4F7D4-V16. The protocol:
as §3, §4

Assay [12] concerns the target T2, cynomolgus TROP2-his protein. Briefly: indirect ELISA, cynomolgus TROP2-his coated at 2 ug/mL, OD(450-630). How it is done:
as §1

Where two headings read alike, the source gives them in different places.

B1: mouse antibody A1B12D2B4E7B3 (antibody, V domains shown)
VH: EVQLQQSGPELVKPGASVKMSCKASGFTFTDYYMNWVKQSHGKSLEWIGYIYPNHGGTGYNQKFKDKATLTVDKSSSTAYMELRSLTSDDSAVYYCARENYGYAMDYWGQGTSVTVSS
VL: DVVMTQTPLSLPVSLGDQASISCRSSQSLVHGDGNTYLHWFLQKPGQSPKLLIYTVSNRFSGVPDRFSGSGSGTDFTLKINRVEAEDLGIYFCSQTTHVPTFGGGTKLEIK
notes: Mouse monoclonal IgG purified from hybridoma supernatant
On to B1, for which the EC50 – broadly, the midpoint of the concentration-response curve – in assay [1] came out at 0.896 nM; in [2], 0.578 nM; with human TROP2-his protein [5] it was 0.248 nM. For the same molecule, the Kd (as a rule, the free concentration of one partner at which half of the binding sites on the other are occupied at equilibrium, for simple one-to-one binding) in the assay with human TROP2-his protein [3] amounted to 1.06 nM; in [4], 1.12 nM. Moreover, the koff (as a rule, the first-order rate constant of dissociation) with human TROP2-his protein [3] came to 8.92e-05 s⁻¹; in [4], 0.000124 s⁻¹. The kon (as a rule, the rate constant with which the complex forms) with human TROP2-his protein [3] was determined as 84000 M⁻¹ s⁻¹; in [4], 111000 M⁻¹ s⁻¹. Moreover, the IC50 – broadly, the concentration that gives 50% inhibition – with human TROP2-his protein [6] was 1.55 nM.

B2: BM2 (in house made analog of Datopotamab) (antibody, human IgG1, kappa, V domains shown)
VH: QVQLVQSGAEVKKPGASVKVSCKASGYTFTTAGMQWVRQAPGQGLEWMGWINTHSGVPKYAEDFKGRVTISADTSTSTAYLQLSSLKSEDTAVYYCARSGFGSSYWYFDVWGQGTLVTVSS
VL: DIQMTQSPSSLSASVGDRVTITCKASQDVSTAVAWYQQKPGKAPKLLIYSASYRYTGVPSRFSGSGSGTDFTLTISSLQPEDFAVYYCQQHYITPLTFGQGTKLEIKR
In turn, B2 registered a Kd with human TROP2-his protein [7] of 28.7 nM. For the same molecule, in the assay with human TROP2-his protein [7], the koff was 0.00364 s⁻¹. The same molecule registered an on-rate constant (kon) with human TROP2-his protein [7] of 127000 M⁻¹ s⁻¹. In addition, the EC50 in [8] was 0.908 nM. The OD450 with human TROP2-his protein [9] was 0.519 OD450; with human TROP2-his protein [10], 0.354 OD450; with human TROP2-his protein [11], 1.63 OD450.

B3: mouse antibody B1G1F5A3 (antibody, V domains shown)
VH: EVQLQQSGPELVKPGTSVKMSCKASGYSFADYSMNWVRQSHGNSLEWIGYIYPNNGASGFNQKFKGKATLTVDKSSSTAYMELHSLTSEDSAVYYCAREQDNSGYCFDYWGQGTSLTVSS
VL: DVVMTQTPLSLAVRLGDQASISCRSSLNLVHSNGNTFLHWYLQRPGQSPKLLIYKVSNRFSGVSDRFSGSGSGTDFTLKISRVEAEDLGVYFCSQTTHVPTFGGGTKLEIK
notes: as for B1
B3: in assay [12], a half-maximal effect (EC50) was put at 0.863 nM. In addition, in the assay with human TROP2-his protein [3], the Kd worked out at 0.416 nM, the koff came out at 5.58e-05 s⁻¹ and the kon was found to be 134000 M⁻¹ s⁻¹. Moreover, in [4], binding was put at a Kd of 0.568 nM, the dissociation rate constant (koff) came out at 8.86e-05 s⁻¹ and the kon is 156000 M⁻¹ s⁻¹. It took 0.335 nM to reach a half-maximal effect with human TROP2-his protein [5] (EC50). The concentration for half-maximal inhibition (IC50) in the assay with human TROP2-his protein [6] amounted to 0.516 nM.
